The assay concerns the target SUSD5 protein, expressed on HEK293 cells (ZsGreen1-SUSD5 vector) (Homo sapiens, UniProt O60279). The experiment in a line: flow cytometry on cells.

Sequence of SUSD5 protein, expressed on HEK293 cells (ZsGreen1-SUSD5 vector) (O60279 36-629): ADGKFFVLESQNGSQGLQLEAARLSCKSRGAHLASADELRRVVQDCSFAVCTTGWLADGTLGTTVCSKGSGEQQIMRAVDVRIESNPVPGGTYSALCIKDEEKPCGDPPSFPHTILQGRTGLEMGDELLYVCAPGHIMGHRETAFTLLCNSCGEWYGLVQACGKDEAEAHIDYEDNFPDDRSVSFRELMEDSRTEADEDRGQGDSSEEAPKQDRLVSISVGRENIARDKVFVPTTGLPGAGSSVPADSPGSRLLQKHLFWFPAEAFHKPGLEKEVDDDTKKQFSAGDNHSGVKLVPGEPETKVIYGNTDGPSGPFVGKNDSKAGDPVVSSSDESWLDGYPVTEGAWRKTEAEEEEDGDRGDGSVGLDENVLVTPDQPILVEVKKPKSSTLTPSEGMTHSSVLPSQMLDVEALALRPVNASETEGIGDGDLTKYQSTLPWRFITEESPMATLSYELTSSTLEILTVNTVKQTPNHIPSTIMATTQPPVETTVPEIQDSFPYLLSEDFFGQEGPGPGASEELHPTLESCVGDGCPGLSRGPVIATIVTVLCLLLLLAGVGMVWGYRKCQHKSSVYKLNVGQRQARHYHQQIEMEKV

B1: h1-3F1, stabilized humanized anti-CD169 mAb of clone #3F1 (variant 6 of h0-3F1) (antibody, V domains shown)
VH: QVQLVQSGAEVKKPGASVKVSCKASGYSFTTYYMHWVRQAPGQRLEWMGWISAYSGATKYSQKFQGRVTITRDTSASTAYMELSSLRSEDTAVYYCARKGGWIPFDYWGQGTTVTVSS
VL: not shown
As for B1, the binding result is reported as “binds”.

The record behind these values is publication PMC12327374 (Biomedicine & pharmacotherapy = Biomedecine & …, 2024).
